# According to US20170088602A1 (Bristol-Myers Squibb, published 2017):
# Positions count from the first letter of the chain named. Names and notes keep the numbering of the source.
# T1: human myostatin (mature, recombinant; R&D Systems) (human, UniProt O14793 267-375)
# T1 construct: biotinylated in the mRNA display selection; also called GDF-8; mature myostatin
# T1 sequence: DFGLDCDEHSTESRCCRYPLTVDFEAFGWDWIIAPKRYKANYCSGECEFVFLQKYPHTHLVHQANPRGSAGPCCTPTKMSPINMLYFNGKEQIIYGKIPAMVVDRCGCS
# T2: human BMP-11 (GDF-11; R&D Systems) (human, UniProt O95390 299-407)
# T2 sequence (looked up): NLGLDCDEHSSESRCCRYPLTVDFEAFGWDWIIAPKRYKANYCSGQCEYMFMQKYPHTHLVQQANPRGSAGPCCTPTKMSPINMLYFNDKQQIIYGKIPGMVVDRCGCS
# T3: human Activin A (R&D Systems) (human, UniProt P08476 311-426)
# T3 sequence (looked up): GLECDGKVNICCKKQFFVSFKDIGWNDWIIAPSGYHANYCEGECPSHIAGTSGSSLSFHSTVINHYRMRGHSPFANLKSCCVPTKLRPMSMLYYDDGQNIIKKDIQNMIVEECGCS
# B1: ATI-1275 [N-ethylmaleimide] (designed binder)
# chain: MGVSDVPRDLEVVAATPTSLLISWYLPYPAHMNYYRITYGETGGNSPVQEFTVPGRGLTATISGLKPGVDYTITVYAVTLTKSQILHHRPISINYRTEGSGCHHHHHH
# modifications: N-ethylmaleimide on the Cys of the EGSGC tail
# notes: cysteine mutant of 2524_D09
# B2: ATI-1277 [N-ethylmaleimide] (designed binder)
# chain: B1 chain with Y25S, P29A, A30G, M32L, L58V, I85L, L86I, H88Y, R89M
# modifications: N-ethylmaleimide on the Cys of the EGSGC tail
# notes: cysteine mutant of 2525_D05
# B3: ATI-1267 [N-ethylmaleimide] (designed binder)
# chain: MGVSDVPRDLEVVAATPTSLLISWTLPHAGRAHYYRITYGETGGNSPVQEFTVPGRGVTATISGLKPGVDYTITVYAVTVTTTSVILYKPISINYRTEGSGCHHHHHH
# modifications: N-ethylmaleimide on the Cys of the EGSGC tail
# notes: cysteine mutant of 2525_D02
# B4: ATI-1378 [40K 2-branch PEG] (designed binder)
# chain: B3 chain with T25S, H28N, A29P, R31N, T82D, S84G, V85F, L87T
# modifications: 40K 2-branch PEG on the Cys of the EGSGC tail
# notes: cysteine mutant of 3146_A08
# B5: ATI-1266 [40K 2-branch PEG] (designed binder)
# chain: B3 chain
# modifications: 40K 2-branch PEG on the Cys of the EGSGC tail
# notes: cysteine mutant of 2525_D02
# B6: 2524_D09 (designed binder)
# chain: MGVSDVPRDLEVVAATPTSLLISWYLPYPAHMNYYRITYGETGGNSPVQEFTVPGRGLTATISGLKPGVDYTITVYAVTLTKSQILHHRPISINYRTEIDKPSQHHHHHH
# B7: 2524_H05 (designed binder)
# chain: MGVSDVPRDLEVVAATPTSLLISWSLPYSGLANYYRITYGETGGNSPVQEFTVPGRGVTATISGLKPGVDYTITVYAVTLTHSNIIRYVPISINYRTEIDKPSQHHHHHH
# B8: 2525_D02 (designed binder)
# chain: MGVSDVPRDLEVVAATPTSLLISWTLPHAGRAHYYRITYGETGGNSPVQEFTVPGRGVTATISGLKPGVDYTITVYAVTVTTTSVILYKPISINYRTEIDKPSQHHHHHH
# B9: 2525_F07 (designed binder)
# chain: B6 chain with Y25S, P29A, L58V, K82R, I85V, L86I, H88Y, R89M
# B10: 2525_B01 (designed binder)
# chain: B7 chain with S25T, Y28N, S29F, A32I, L80I, H82K, N84T, R87I, V89K
# B11: 2987_H07 (designed binder)
# chain: B8 chain with S84K, L87H
# B12: 2522_C09 (designed binder)
# chain: MGVSDVPRDLEVVAATPTSLLISWEVPRGLARYYRITYGETGGNSPVQEFTVLGRGSTATISGLKPGVDYTITVYAVTVYRDGPLLLAPISINYRTEIDKPSQHHHHHH
# B13: 3116_A06 (designed binder)
# chain: B8 chain with T25S, A29Q, R31K, H33N, T82D, S84G, V85Y, I86L, L87K
# notes: also called WT parent
# B14: ATI-1106 [40K 2-branch PEG] (designed binder)
# chain: MGVSDVPRDLEVVAATPTSLLISWVSPRGRARYYRITYGETGGNSPVQEFTVPGRGSTATISGLKPGVDYTITVYAVTIYRDGMSHHDPISINYRTGSGCHHHHHH
# modifications: 40K 2-branch PEG on the Cys of the GSGC tail
# B15: ATI-1341 [20K Bis-PEG] (designed binder)
# chain: B3 chain with S84K, L87H
# modifications: two Adnectins joined through their tail Cys to the two ends of a 20 kDa bis-PEG
# notes: bivalent PEGylated form of the 2987_H07 cysteine mutant
# B16: 3116_A06 K87A (designed binder)
# chain: B8 chain with T25S, A29Q, R31K, H33N, T82D, S84G, V85Y, I86L, L87A
# B17: 3116_A06 D82A (designed binder)
# chain: B8 chain with T25S, A29Q, R31K, H33N, T82A, S84G, V85Y, I86L, L87K
# B18: 3116_A06 T83A (designed binder)
# chain: B8 chain with T25S, A29Q, R31K, H33N, T82D, T83A, S84G, V85Y, I86L, L87K
# B19: 3116_A06 S25A (designed binder)
# chain: B8 chain with T25A, A29Q, R31K, H33N, T82D, S84G, V85Y, I86L, L87K
# B20: 3116_A06 G57A (designed binder)
# chain: B8 chain with T25S, A29Q, R31K, H33N, G57A, T82D, S84G, V85Y, I86L, L87K
# B21: 3116_A06 Q29A (designed binder)
# chain: B8 chain with T25S, R31K, H33N, T82D, S84G, V85Y, I86L, L87K
# B22: 3116_A06 G55A (designed binder)
# chain: B8 chain with T25S, A29Q, R31K, H33N, G55A, T82D, S84G, V85Y, I86L, L87K
# B23: 3116_A06 V58A (designed binder)
# chain: B8 chain with T25S, A29Q, R31K, H33N, V58A, T82D, S84G, V85Y, I86L, L87K
# B24: 3116_A06 K89A (designed binder)
# chain: B8 chain with T25S, A29Q, R31K, H33N, T82D, S84G, V85Y, I86L, L87K, K89A
# B25: 3116_A06 G84A (designed binder)
# chain: B8 chain with T25S, A29Q, R31K, H33N, T82D, S84A, V85Y, I86L, L87K
# B26: 3116_A06 K31A (designed binder)
# chain: B8 chain with T25S, A29Q, R31A, H33N, T82D, S84G, V85Y, I86L, L87K
# Target: T1, human myostatin (mature, recombinant; …)
# Test: SPR format A, 25C
# Description: (§1) Anti-human Fc antibody (Biacore/GE) was immobilized on a Biacore CM5 chip via NHS/EDC coupling according to the manufacturer's instructions. […] A concentration range of anti-myostatin Adnectin was applied across all flow cells in HBSP running buffer. Regeneration of the chip surface between cycles was accomplished with two 30 second pulses of 3M MgCl₂. Kinetic traces of reference-subtracted sensorgrams were fit to a 1:1 binding model using Biaevaluation software.
row,Kd,Binder
1,0.15 nM,B1
2,0.16 nM,B2
3,0.057 nM,B3
4,14.4 nM,B4
5,0.76 nM,B5
6,0.64 nM,B6
7,0.88 nM,B7
8,0.24 nM,B8
9,0.79 nM,B9
10,1.29 nM,B10
11,0.99 nM,B11
12,0.51 nM,B12

# Target: T2, human BMP-11 (GDF-11; R&D Systems)
# Test: SPR format A, 25C
# Description: as §1
row,Kd,Binder
1,0.15 nM,B1
2,0.14 nM,B2
3,0.065 nM,B3
4,59.6 nM,B4
5,2.57 nM,B5
6,0.81 nM,B6
7,0.87 nM,B7
8,0.3 nM,B8
9,0.97 nM,B9
10,1.58 nM,B10
11,2.25 nM,B11
12,0.45 nM,B12

# Target: T1, human myostatin (mature, recombinant; …)
# Test: cell-based or functional assay
row,ARE-luciferase IC50,Binder
1,0.14 nM,B13
2,0.03 nM,B1
3,0.14 nM,B2
4,0.06 nM,B3
5,0.06 nM,B6
6,0.09 nM,B7
7,0.05 nM,B8
8,0.13 nM,B9
9,0.11 nM,B10
10,0.02 nM,B11
11,0.06 nM,B12

# Target: T2, human BMP-11 (GDF-11; R&D Systems)
# Test: cell-based or functional assay
row,ARE-luciferase IC50,Binder
1,13 nM,B13
2,0.14 nM,B1
3,1.18 nM,B2
4,0.5 nM,B3
5,0.55 nM,B6
6,7.3 nM,B7
7,1.1 nM,B8
8,3.4 nM,B9
9,3.2 nM,B10
10,5.5 nM,B11
11,1.6 nM,B12

# Target: T3, human Activin A (R&D Systems)
# Test: cell-based or functional assay
row,ARE-luciferase IC50,Binder
1,> 1000 nM,B13
2,19 nM,B1
3,2000 nM,B2
4,644 nM,B3
5,84 nM,B6
6,> 1000 nM,B7
7,345 nM,B8
8,> 1000 nM,B9
9,73 nM,B10
10,> 400 nM,B11
11,1000 nM,B12

# Target: T1, human myostatin (mature, recombinant; …)
# Test: cell-based or functional assay
# Remark: another data set of the same source
row,ARE-luciferase IC50,Binder
1,177 nM,B14
2,0.03 nM,B15
3,0.29 nM,B4
4,0.12 nM,B5

# Target: T2, human BMP-11 (GDF-11; R&D Systems)
# Test: cell-based or functional assay
# Remark: another data set of the same source
row,ARE-luciferase IC50,Binder
1,1410 nM,B14
2,0.14 nM,B15
3,5.4 nM,B4
4,0.89 nM,B5

# Target: T3, human Activin A (R&D Systems)
# Test: cell-based or functional assay
# Remark: another data set of the same source
row,ARE-luciferase IC50,Binder
1,> 2000 nM,B14
2,14 nM,B15
3,> 1000 nM,B4
4,2000 nM,B5

# Target: T1, human myostatin (mature, recombinant; …)
# Test: cell-based or functional assay
# Remark: another data set of the same source
"pSmad2 IC50, 4-point","pSmad2 IC50, 12-point",Binder
0.27 nM,–,B13
–,0.11 nM,B6
–,0.13 nM,B7
–,0.36 nM,B8
–,0.27 nM,B9
–,0.14 nM,B10
–,0.13 nM,B12

# Target: T1, human myostatin (mature, recombinant; …)
# Test: cell-based or functional assay
# Remark: another data set of the same source
row,Myostatin ARE-luc IC50,Binder
1,0.6 nM,B13
2,2 nM,B16
3,1.8 nM,B17
4,1.8 nM,B18
5,2.9 nM,B19
6,> 100 nM,B20
7,1.5 nM,B21
8,> 100 nM,B22
9,3.3 nM,B23
10,1.6 nM,B24
11,3.6 nM,B25
12,2.2 nM,B26

# Target: T1, human myostatin (mature, recombinant; …)
# Test: competitive HTRF, alanine scan
row,IC50,Binder
1,0.3 nM,B13
2,0.8 nM,B16
3,0.8 nM,B17
4,1.3 nM,B18
5,0.8 nM,B19
6,> 100 nM,B20
7,0.7 nM,B21
8,> 100 nM,B22
9,1.6 nM,B23
10,0.7 nM,B24
11,2 nM,B25
12,0.6 nM,B26

# Target: T1, human myostatin (mature, recombinant; …)
# Test: competitive HTRF (1889E01/myostatin/ActRIIb-Fc sandwich)
# Description: An HTRF assay was used to measure the binding affinities of anti-myostatin Adnectins to myostatin. […] The Eu-W 1024 labeled Streptavidin is used to bind biotinylated 1889E01. […] In the presence of a competitive Adnectin, the HTRF signal decreases.
row,IC50,Binder
1,0.15 nM,B13
2,0.19 nM,B1
3,0.38 nM,B2
4,0.12 nM,B3
5,0.13 nM,B15
6,1.29 nM,B4
7,0.21 nM,B5
